From publication doi:10.1101/2025.02.13.638205 (2025) come the findings set out here.

The Kd is the free concentration of one partner at which half of the binding sites on the other are occupied at equilibrium, for simple one-to-one binding.

B3: recombinant Pfs230 D13D14 (K2828-E3111) (domain or fragment)
chain: KTIGKDICKYDVTTKVATCEIIDTIDSSVLKEHHTVHYSITLSRWDKLIIKYPTNEKTHFENFFVNPFNLKDKVLYNYNKPINIEHILPGAITTDIYDTRTKIKQYILRIPPYVHKDIHFSLEFNNSLSLTKQNQNIIYGNVAKIFIHINQGYKEIHGCDFTGKYSHLFTYSKKPLPNDDDICNVTIGNNTFSGFACLSHFELKPNNCFSSVYDYNEANKVKKLFDLSTKVELDHIKQNTSGYTLSYIIFNKESTKLKFSCTCSSNYSNYTIRITFDPNYIIPE

Experiment [1] addresses B3. Briefly: BLI.
For the next experiment, the target named is W2811. As to the kind of experiment: BLI.

B1: nanobody W2812 (VHH)
VHH: QVQLQESGGGLVQPGGSLRLSCAASGRTFSSYMMAWFRQSQGNERELVAGLTRSGVSAYYADSVKGRFTISRDNAKNTVYLQMNSLKPKDTAVYYCAAASTTYINHIYTNPSNYPHWGPGTQVTVSS
B1: in experiment [1], the Kd was 1.55 nM.

B2: nanobody W2810 (VHH)
VHH: QVQLQESGGGLVQAGGSLRLSCAASGRTFSSYAMGWFHQAPGKEREFVASISWSGGSIRYADSVKGRFTVSRDNAKNTAYLQMNSLKPEDTGVYYCAAGPYSSDYGGFGSWGQGTQVTVSS
As to B2, the Kd in experiment [1] was determined as 4.8 nM.

As for B3, binding with W2811 was put at a Kd of 5.12 nM.
